One assay has as its target Gαq/i chimera. As to the kind of experiment: cell-based or functional assay.
The next assay deals with Gαi1. As to the kind of experiment: cell-based or functional assay.

Regarding human RGS4 (from UniProt P49798 1-205), the reduction in SRE activation (SRE-luciferase reporter, CHO-D2R cells) with Gαq/i chimera was 60%. In the assay with Gαi1, this substance registered an inhibition of SRE activation (SRE-luciferase reporter, all quinpirole concentrations, CHO-D2R cells) of over 80% and a reduction in quinpirole-stimulated SRE activation (SRE-luciferase reporter, 100 nM quinpirole, CHO-D2R cells) of 85%.
In the assay with Gαi1, human RGSz1 (from UniProt O76081 1-388) came in with an attenuation of SRE activation (SRE-luciferase reporter, CHO-D2R cells co-transfected with Gαi1) of 25 to 30%.

Source of the values: patent US20030119716A1, “Methods for screening, treating and diagnosing G-protein coupled receptor-related disorders and compositions thereof” (Wyeth, priority 2001, published 2003).
